Entries after “also recorded” stand apart in the source; their conditions may differ. Each block holds one molecule with its values, some of them ahead of it.
Key:
[1] = tested on: HEK293 cells engineered to express HER3; assay: Antibody internalisation, pHrodo imaging, HEK293 HER3; format: cell-based; settings: 120 nM, 24 hours, HEK293 overexpressing HER3
Protocol: (§1) Briefly, 100,000 HEK293 cells engineered to express HER3, HCC95, N87 or OVCAR8 cells were seeded in wells of 96-well tissue culture plates and cultured overnight at 37° C. in 5% CO2. […] The cells in culture were imaged every 30 min for 24 hours, in 4 different fields of each well. The maximum signal intensity in the FITC channel of each field was quantified at 24 hours.

[2] = tested on: OVCAR8 cells; assay: Antibody internalisation, pHrodo imaging, OVCAR8; format: cell-based; settings: 120 nM, 24 hours
Protocol: as §1

[3] = tested on: cynomolgus macaque HER3; assay: ELISA cross-reactivity, cynomolgus macaque HER3; format: binding
Protocol: (§2) ELISAs were used to determine the binding specificity of the antibodies. The antibodies were analysed for binding to human HER3 polypeptide, as well as respective mouse, rat and monkey homologues of HER3 (Sino Biological Inc., China). The antibodies were also analysed for their ability to bind to human EGFR and human HER2 (Sino Biological Inc., China).
(§3) ELISAs were carried out according to standard protocols. Briefly, 96-well plates (Nunc, Denmark) were coated with 0.1 μg/ml of target polypeptide in phosphate-buffered saline (PBS) for 16 h at 4° C. After blocking for 1 h with 1% BSA in […] (TBS) at room temperature, the anti-HER3 antibody was serially diluted with the highest concentration being 10 μg/ml, and added to the plate, Post 1 h incubation at room temperature, plates were washed three times with TBS containing 0.05% Tween 20 (TBS-T) and were then incubated with a HRP-conjugated anti-His antibody (Life Technologies, Inc., USA) for 1 h at room temperature. After washing, plates were developed with colorimetric detection substrate 3,3′,5,5′-tetramethylbenzidine (Turbo-TMB; Pierce, USA) for 10 min. The reaction was stopped with 2M H2SO4, and OD was measured at 450 nm. […]

[4] = target: T1, rat HER3 (Rattus norvegicus, UniProt Q62799); assay: ELISA cross-reactivity, rat HER3; format: binding
T1 construct: purchased Sino Biological Inc., China
T1 sequence (Q62799 20-1339): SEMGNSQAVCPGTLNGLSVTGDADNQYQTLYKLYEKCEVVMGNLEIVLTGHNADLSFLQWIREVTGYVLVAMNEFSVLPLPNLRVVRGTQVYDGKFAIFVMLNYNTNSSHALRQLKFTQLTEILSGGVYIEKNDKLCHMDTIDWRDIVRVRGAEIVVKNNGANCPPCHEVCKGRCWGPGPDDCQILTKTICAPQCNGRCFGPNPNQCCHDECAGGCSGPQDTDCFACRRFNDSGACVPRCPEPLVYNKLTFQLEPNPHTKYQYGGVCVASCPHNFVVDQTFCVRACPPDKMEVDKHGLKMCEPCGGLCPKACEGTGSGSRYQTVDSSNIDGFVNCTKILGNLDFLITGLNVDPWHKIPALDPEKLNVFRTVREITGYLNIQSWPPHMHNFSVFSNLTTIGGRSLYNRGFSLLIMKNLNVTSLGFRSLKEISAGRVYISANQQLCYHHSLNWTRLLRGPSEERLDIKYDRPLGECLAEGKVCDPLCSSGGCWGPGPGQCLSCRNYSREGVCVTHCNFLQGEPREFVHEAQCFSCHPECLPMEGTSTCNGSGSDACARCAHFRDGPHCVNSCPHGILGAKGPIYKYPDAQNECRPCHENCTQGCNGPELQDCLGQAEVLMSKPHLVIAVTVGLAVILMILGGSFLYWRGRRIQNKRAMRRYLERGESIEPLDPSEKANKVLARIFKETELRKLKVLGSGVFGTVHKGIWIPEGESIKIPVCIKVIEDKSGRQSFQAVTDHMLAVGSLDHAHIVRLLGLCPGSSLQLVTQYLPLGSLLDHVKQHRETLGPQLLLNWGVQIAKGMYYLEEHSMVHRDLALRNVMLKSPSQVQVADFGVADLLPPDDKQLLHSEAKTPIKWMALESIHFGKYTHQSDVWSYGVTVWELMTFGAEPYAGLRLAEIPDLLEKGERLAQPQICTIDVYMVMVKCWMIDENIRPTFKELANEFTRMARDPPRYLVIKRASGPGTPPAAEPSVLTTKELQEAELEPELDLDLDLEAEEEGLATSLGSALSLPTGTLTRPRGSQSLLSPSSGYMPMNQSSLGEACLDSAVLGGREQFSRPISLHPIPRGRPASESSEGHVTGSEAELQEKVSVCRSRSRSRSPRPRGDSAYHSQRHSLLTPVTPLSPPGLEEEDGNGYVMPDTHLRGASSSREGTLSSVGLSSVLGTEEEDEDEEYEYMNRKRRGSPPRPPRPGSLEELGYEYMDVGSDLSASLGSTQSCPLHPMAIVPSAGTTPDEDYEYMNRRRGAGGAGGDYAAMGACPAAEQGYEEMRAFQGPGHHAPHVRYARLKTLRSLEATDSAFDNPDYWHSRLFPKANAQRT
Protocol: as §2, §3

[5] = target: T2, human EGFR (Homo sapiens, UniProt P00533); assay: ELISA specificity, human EGFR; format: binding; settings: antibody up to 10 μg/ml
T2 construct: purchased Sino Biological Inc., China
Protocol: as §2
(§4) ELISAs were carried out according to standard protocols. Briefly, 96-well plates (Nunc, Denmark) were coated with 0.1 μg/ml of target polypeptide in phosphate-buffered saline (PBS) for 16 h at 4° C. After blocking for 1 h with 1% BSA in […] (TBS) at room temperature, the anti-HER3 antibody was serially diluted with the highest concentration being 10 μg/ml, and added to the plate, Post 1 h incubation at room temperature, plates were washed three times with TBS containing 0.05% Tween 20 (TBS-T) and were then incubated with a HRP-conjugated anti-His antibody (Life Technologies, Inc., USA) for 1 h at room temperature. […] The reaction was stopped with 2M H2SO4, and OD was measured at 450 nm.
(§5) The antibodies were analysed for their ability to bind to human HER3 polypeptide as well as human HER1 (EGFR) and human HER2 (Sino Biological Inc., China). […]
(§6) ELISAs were carried out according to standard protocols. […] The reaction was stopped with 2M H2SO4, and OD was measured at 450 nm.

[6] = target: T3, human HER2 (Homo sapiens, UniProt P04626); assay: ELISA specificity, human HER2; format: binding; settings: antibody up to 10 μg/ml
T3 construct: purchased Sino Biological Inc., China
Protocol: as §2, §4, §5, §6

[7] = target: T4, mouse HER3 (Mus musculus, UniProt Q61526); assay: ELISA cross-reactivity, mouse HER3; format: binding
T4 construct: purchased Sino Biological Inc., China
T4 sequence (Q61526 20-1339): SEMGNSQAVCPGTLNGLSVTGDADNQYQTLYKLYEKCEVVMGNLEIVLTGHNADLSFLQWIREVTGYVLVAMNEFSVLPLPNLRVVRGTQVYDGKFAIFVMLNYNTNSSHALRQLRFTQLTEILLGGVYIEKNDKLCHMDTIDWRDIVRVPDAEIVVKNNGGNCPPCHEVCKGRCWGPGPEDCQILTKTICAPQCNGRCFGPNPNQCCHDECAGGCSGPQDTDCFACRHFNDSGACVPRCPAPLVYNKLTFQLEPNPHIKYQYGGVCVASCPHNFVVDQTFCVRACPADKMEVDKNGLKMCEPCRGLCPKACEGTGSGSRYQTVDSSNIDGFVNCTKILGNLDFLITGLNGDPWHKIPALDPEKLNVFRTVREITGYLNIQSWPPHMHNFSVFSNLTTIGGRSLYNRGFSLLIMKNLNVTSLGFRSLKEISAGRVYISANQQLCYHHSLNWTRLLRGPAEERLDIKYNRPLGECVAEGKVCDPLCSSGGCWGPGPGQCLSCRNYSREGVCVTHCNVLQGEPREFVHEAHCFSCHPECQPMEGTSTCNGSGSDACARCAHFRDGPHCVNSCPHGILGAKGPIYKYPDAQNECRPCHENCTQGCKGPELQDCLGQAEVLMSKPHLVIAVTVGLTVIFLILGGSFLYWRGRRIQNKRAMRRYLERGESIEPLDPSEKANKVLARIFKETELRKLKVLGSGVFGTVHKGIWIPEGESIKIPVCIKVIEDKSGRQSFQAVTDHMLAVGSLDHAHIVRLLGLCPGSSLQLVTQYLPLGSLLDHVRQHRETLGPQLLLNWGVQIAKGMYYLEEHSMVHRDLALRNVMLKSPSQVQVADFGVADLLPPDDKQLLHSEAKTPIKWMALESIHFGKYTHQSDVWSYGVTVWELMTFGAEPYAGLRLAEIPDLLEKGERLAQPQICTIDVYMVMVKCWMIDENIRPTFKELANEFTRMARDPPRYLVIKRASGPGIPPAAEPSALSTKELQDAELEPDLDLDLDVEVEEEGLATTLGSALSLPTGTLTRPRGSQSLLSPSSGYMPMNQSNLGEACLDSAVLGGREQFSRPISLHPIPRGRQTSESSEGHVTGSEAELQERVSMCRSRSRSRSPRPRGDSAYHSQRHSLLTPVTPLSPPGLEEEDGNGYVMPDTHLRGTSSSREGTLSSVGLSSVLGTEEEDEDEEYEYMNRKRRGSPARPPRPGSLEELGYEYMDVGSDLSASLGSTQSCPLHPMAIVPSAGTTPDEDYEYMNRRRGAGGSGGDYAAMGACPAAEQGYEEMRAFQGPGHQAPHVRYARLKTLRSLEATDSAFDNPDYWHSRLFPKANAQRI
Protocol: as §2, §3

[8] = target: T5, human HER3 (Homo sapiens, UniProt P21860); assay: Immunohistochemistry of frozen human tissue sections; design: from tissue; host or cells: arrays of frozen tissue sections; settings: mIgG2a format
Protocol: Anti-HER3 antibody 10D1F in mIgG2a format was evaluated for its ability to be used in immunohistochemistry for the detection of human HER3 protein.
Processing of sections was performed using Bond reagents (Leica Biosystems). Arrays of commercially-available frozen tissue sections were obtained. Slides were dried in a desiccator for 10 min and then subjected to the following treatments, with water washes and/or TBS-T rinses between steps: (i) fixation by treatment with 100% acetone for 10 min at room temperature; (ii) endogenous peroxidase blocking by treatment with 3% (v/v) H2O2 for 15 min at room temperature; (iii) blocking by treatment with 10% goat serum for 30 min at room temperature, (iv) incubation with 10D1F-mIgG2a at 1:250 dilution of a 6.2 mg/ml solution overnight at 4° C., (v) incubation with HRP-polymer conjugated goat anti-mouse antibody for 30 min at room temperature, and (vi) development with Bond Mixed DAB Refine for 5 min at room temperature, followed by rinsing with deionised water and 1× Bond Wash to stop the reaction.
Slides were then dehydrated, mounted in synthetic mounting media and scanned with high resolution.

[9] = tested on: FaDu cells; assay: CCK-8 proliferation assay, FaDu cells; format: cell-based; settings: 5 days, from 100 μg/ml
Protocol: (§7) Cell proliferation was measuring using the CCK-8 proliferation assay (Dojindo, Japan) after a period of 5 days, in accordance with the manufacturers instructions, Briefly 1×CCK-8 solution was added to each well followed by incubation for 2 h at 37° C. The OD was then measured at 450 nm.

[10] = tested on: HER3-mediated signalling (pHER3, pAKT); assay: Inhibition of HER3-mediated signalling in vitro, phospho-western blot; format: cell-based; settings: N87 and FaDu cells, 50 μg/ml 4 hrs, NRG 100 ng/ml
Protocol: Briefly, N87 and FaDu cells were seeded in wells of a 6 well plate with 10% serum at 37° C., 5% CO2. After 16 hrs, cells were starved by culture overnight in 1% FBS cell culture medium (to reduce signalling elicited by growth factors in the serum). […] Proteins were then extracted, quantified using standard Bradford protein assay, fractionated by SDS-PAGE, and transferred to nitrocellulose membranes. The membranes were then blocked and immunoblotted with the following antibodies overnight at 4° C. anti-pHER3, anti-pAKT, pan anti-HER3, pan anti-AKT and anti-beta-actin. The blots were visualized via Bio-Rad Clarity Western ECL substrate, and bands were quantified using densiometric analysis; data were normalized to beta actin controls.
N87, FaDu or OvCAR8 cells were seeded in wells in a 6 well plate with 10% serum overnight at 37° C. with 5% CO2. […] Antibodies tested were: 10D1F.FcA (10D1), Seribantumab (SBT), Elegemtumab (LJM), Pertuzumab (PTM), Cetuximab (CTX), and Trastuzumab (TZ).
Before harvesting, cells were stimulated with 100 ng/ml of NRG1, Protein extracted from cell lines were quantified using standard Bradford protein assay, Protein samples (50 μg) were fractionated by SDS-PAGE and transferred to nitrocellulose membrane. […] The blots were quantified using densiometric analysis and data was normalised to beta actin. […]

[11] = tested on: N87 cells; assay: CCK-8 proliferation assay, N87 cells; format: cell-based; settings: N87, 5 days, from 100 μg/ml
Protocol: as §7

[12] = target: T5, human HER3; assay: BLI competition between anti-HER3 antibodies for binding to HER3
Protocol: Bio-Layer Interferometry (BLI) experiments were performed using the Octet QK384 system (ForteBio), anti-Penta-HIS (HIS1K) coated biosensor tips (ForteBio, USA) were used to capture His-tagged human HER3 (75 nM; 300 s). […] The variable region of LJM-716 antibody was cloned in the PDZ vector having human IgG1 and IgKappa Fc backbone.
BLI experiments were performed as described in Example 3.5 with one alteration: 400 nM of competing antibodies were used. The variable regions of M-05-74 and M-08-11 antibodies were cloned in the PDZ vector having human IgG1 and IgKappa Fc backbone.

[13] = tested on: PI3K/AKT/mTOR and MAPK signalling; assay: Phosphoprotein Antibody Array, FaDu cells; format: cell-based; settings: 50 μg/ml 4 hrs, NRG 100 ng/ml
Protocol: In further experiments the inventors investigated the intracellular signalling pathways affected by anti-HER3 antibody-mediated inhibition of HER3.
FaDu cells were seeded in wells of a 6 well plate with 10% serum at 37° C., 5% CO2. After 16 hrs, cells were starved by culture overnight in 1% FBS cell culture medium. […] Proteins were then extracted, quantified using standard Bradford protein assay, and incubated overnight with pre-blocked Phosphoprotein Antibody Array membrane (Ray Biotech) at 4° C., The membrane was then washed with washing buffer and incubated with detection antibody cocktail for 2 hrs at room temperature, followed by washing and incubation with HRP-Conjugated anti-IgG. After 2 hrs the membrane was washed and probed using the kit detection buffer. Images were captured with Syngene Gbox imaging system, the intensity of each dot/phosphoprotein was measured and percent inhibition was calculated by comparison with intensity measured for cells treated in the same way in the absence of the antibody.

Molecule: LJM716: anti-HER3 antibody clone LJM716 (Garner et al., Cancer Res (2013) 73: 6024-6035), also referred to as Elgemtumab [reference compound]
Internalisation [1]: significant internalization | Internalisation [2]: Modest to moderate internalization

B2: 10D1F: Anti-HER3 antibody 10D1F (VH SEQ ID NO:36, VL SEQ ID NO:83) in mIgG2a format, used for immunohistochemistry (antibody, V domains shown)
VH: QVQLQESGPGLVKPSQTLSLTCTVSGYSITSGYSWHWIRQHPGKGLEWIGSIRYSGGTDYNPSLKSLVTISADTSKNQFSLKLSSVTAADTAVYYCARMTTAPWYPFDYWGQGTTVTVSS
VL: DIQMTQSPSSVSASVGDRVTITCKASQIVGSNVAWYQQKPGKAPEPLIYSASYLYSGVPSRFSGSGSGTDFTLTISSLQPEDFATYYCQQYSSHPLTFGQGTKLEIK
modifications: mouse IgG2a constant regions; 10D1_c89 heavy chain variable region; 10D1_c89 light chain variable region
Staining of malignant and normal human tissue sections [8]: preferentially stained malignant human tissue sections, with low cross-reactivity to normal tissue

Now from value to molecule, other results behind:

Cross-reactivity with rat HER3 [4]: substantial cross-reactivity | Binding to human EGFR [5]: bind to human HER2 and human EGFR | Binding to human HER2 [6]: bind to human HER2 and human EGFR | Cross-reactivity with mouse HER3 [7]: substantial cross-reactivity
B1: 4-35-B2: anti-HER3 antibody clone; VH = SEQ ID NO:127, VL = SEQ ID NO:135 (antibody, V domains shown)
VH: EIQLQQSGPELVKPGASVKVSCKASGYSFTDYNMYWVKQSHGKSLEWIGHINPYNGGTTYNQKFKGRATLTVDKSSSTAFMHLNSLTSEDSAVYFCVSLRWGAMDYWGQGTSVTVSS
VL: QIVLTQSPALMSASPGEKVTMTCSASSSVSYMYWYQQKPRSSPKPWIYLTSNLASGVPARFSGSGSGTSYSLTISSMEAEDAATYYCQQWNSNPYTFGGGTKLEIK
modifications: 4-35-B2 heavy chain variable region; 4-35-B2 light chain variable region
Cross-reactivity with cynomolgus macaque HER3 [3]: substantial cross-reactivity

Cross-reactivity with rat HER3 [4]: substantial cross-reactivity | Binding to human EGFR [5]: not to bind | Cross-reactivity with mouse HER3 [7]: substantial cross-reactivity
B3: 10D1: anti-HER3 antibody clone, parental mouse; VH = SEQ ID NO:24, VL = SEQ ID NO:74 (antibody, V domains shown)
VH: DVQLQESGPDLVKPSQSLSLTCTVTGYSITSGYSWHWIRQFPGNKLEWMGSIHYSGGTNYNPSLKSRISITRDTSKNQFFLQLNSVTTEDTATYFCARMTTAPRYPFDYWGQGTTLTVSS
VL: DIVMTQSQKFMSTSVGDRVSVTCKASQIVGSNVAWYQQKPGQSPKPLIYSASYRYSGVPDRFTASGSGTDFTLTITNVQSEDLAEYFCQQYSSHPLTFGAGTKLELK
modifications: 10D1 heavy chain variable region; 10D1 light chain variable region
Cross-reactivity with cynomolgus macaque HER3 [3]: substantial cross-reactivity | Inhibition of cell proliferation [9]: dose-dependent inhibition of cell proliferation | Inhibition of HER3 phosphorylation and downstream signalling [10]: inhibit HER3 phosphorylation and downstream signalling | Inhibition of cell proliferation [11]: dose-dependent inhibition of cell proliferation | Competition with MM-121 and/or LJM-716 for binding to HER3 [12]: not to compete with MM-121 and/or LJM-716 for binding to HER3; also recorded: distinct and topologically distant epitope of HER3 than MM-121 and/or LJM-716 | Inhibition of intracellular signalling pathways [13]: inhibit PI3K/AKT/mTOR and MAPK signalling
